The values that follow come from FireProtDB (doi:10.1021/acs.biochem.5b01204).

Where “and” joins values, the source holds several entries; their conditions need not be identical. Identical values can stand only once.

For this data set the following is noted: Enterobacteria phage T4, pH 7.4, Sodium Phosphate Buffer, whole UniProt chain shown; for denaturant midpoint (higher = more stable): 25 °C, Urea.

B1: Sliding clamp wild type, P04525 (protein)
chain: MKLSKDTTALLKNFATINSGIMLKSGQFIMTRAVNGTTYAEANISDVIDFDVAIYDLNGFLGILSLVNDDAEISQSEDGNIKIADARSTIFWPAADPSTVVAPNKPIPFPVASAVTEIKAEDLQQLLRVSRGLQIDTIAITVKEGKIVINGFNKVEDSALTRVKYSLTLGDYDGENTFNFIINMANMKMQPGNYKLLLWAKGKQGAAKFEGEHANYVVALEADSTHDF
As a reminder, the Tm is the temperature at the midpoint of the melting transition. For B1, the “denaturant midpoint (higher = more stable)” value is 2.6 M and 5.7 M (CD, transition: 3, reversible: yes); 5.8 M and 2.5 M (CD); 2.7 M and 5.7 M (fluorescence, transition: 3, reversible: yes); 5.9 M (fluorescence). Also, the Tm (Thermal, DSC, reversible: no) came out at 52.3 °C. In addition, the “unfolding enthalpy (calorimetric)” value (Thermal, DSC, reversible: no) was found to be 83.6 kcal/mol. Besides, the “unfolding enthalpy (van 't Hoff)” value (Thermal, DSC, reversible: no) was 259 kcal/mol.
